The supplement of paper PMC10126150
± gives the standard deviation of the averaged measurements.

Tested on: ATP
Assay: switch fluorescence ratio, 500 uM ATP over buffer (Cy3 cluster intensity, sum of 5 cycles each) (fold (ratio)); higher = stronger signal-on switching upon ATP binding; sequences stand for … in TCGTCGGCAGCGTCAGATGTGTATAAGAGACAGTTTTTTTTTTTTTTTTTTTTTTTTT…TC
Details: aptamer strand: ATP DNA aptamer (quencher-CACCTGGGGGAGTATTGCGGAGGAAGG + anchor), 100 nM annealed; ATP concentration: 500 uM
How it was run: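 Cy3-labelled switching-strand clusters on a modified Illumina MiSeq flow-cell were annealed to 100 nM quencher-labelled ATP aptamer and imaged first in selection buffer, then after 15 min with 500 uM ATP at 22 °C. NaOH stripping and re-annealing separated each of five buffer/ATP cycles, and clusters outside 100-1000 RFU were excluded. The fluorescence ratio sums target-cycle Cy3 intensity over buffer-cycle Cy3 intensity per cluster and averages it per switch-domain sequence.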
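Further: ATP exposure 15 min at 22 °C before imaging.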

Sequence	switch fluorescence ratio
AGGAGTTATG	1.015 ± 0.0046
AGGATAAAGT	0.9875 ± 0.0077
AGGATAGTGT	0.985 ± 0.036
AGGATCGACG	0.925 ± 0.013
AGGATGATGC	0.979 ± 0.026
AGGATGCTCA	1.01 ± 0.011
AGGATGGTGA	0.968 ± 0.015
AGGATGGTTA	0.968 ± 0.076
AGGATGTAAA	1.025 ± 0.0045
AGGATTGGTT	1 ± 0.025
AGGCAAAAAT	1.008 ± 0.004
AGGCAAAGTT	0.989 ± 0.026
AGGCAACCAA	1.02 ± 0.017
AGGCACGTGT	1.02 ± 0.015
AGGCAGAATC	1.01 ± 0.037
AGGCAGCTGT	1.01 ± 0.018
AGGCAGGCCA	1.17 ± 0.056
AGGCAGGGAT	1.01 ± 0.057
AGGCAGGTAC	1.246 ± 0.0051
AGGCAGGTTG	0.985 ± 0.019
AGGCATAAGG	0.9897 ± 0.0077
AGGCATTGGC	0.997 ± 0.048
AGGCATTTTA	0.983 ± 0.053
AGGCCCGTGT	0.98 ± 0.068
AGGCCCTTTA	1.12 ± 0.17

Sequence	switch fluorescence ratio
AGGCCGGAAG	0.9945 ± 0.0095
AGGCCGTAGG	0.937 ± 0.048
AGGCCTGAAA	0.983 ± 0.07
AGGCCTGAGC	1 ± 0.025
AGGCCTTGTT	0.974 ± 0.019
AGGCGAGGAT	1.012 ± 0.0075
AGGCGATCTG	1.01 ± 0.041
AGGCGCAGGT	1.01 ± 0.021
AGGCGCCTGT	1.02 ± 0.017
AGGCGCTCTG	0.99 ± 0.0045
AGGCGGACGT	1 ± 0.0089
AGGCGGGGAG	1.02 ± 0.026
AGGCGGGGCG	1.02 ± 0.022
AGGCGTAAGG	1.03 ± 0.015
AGGCTCATGG	1.028 ± 0.0089
AGGCTGGGGG	0.996 ± 0.013
AGGCTGGTCT	0.952 ± 0.1
AGGCTTTCTC	1.14 ± 0.11
AGGCTTTGG	0.999 ± 0.051
AGGGAAAAAC	2.45 ± 2
AGGGAAAAAG	1.02 ± 0.045
AGGGAAAGTT	1.01 ± 0.024
AGGGAAGCT	1.05 ± 0.015
AGGGAAGGAT	1.01 ± 0.047
AGGGAAGGGG	1.1 ± 0.17

Sequence	switch fluorescence ratio
AGGGAATGTG	0.987 ± 0.034
AGGGACAGAC	1.17 ± 0.054
AGGGACGTAG	1.05 ± 0.026
AGGGACTTGG	1 ± 0.047
AGGGACTTGT	1 ± 0.03
AGGGAGAACG	0.961 ± 0.047
AGGGAGAAGT	0.9853 ± 0.002
AGGGAGGAGG	0.971 ± 0.024
AGGGAGGCCG	0.98 ± 0.11
AGGGAGGGAT	1.01 ± 0.027
AGGGAGGGTT	1 ± 0.039
AGGGAGTGCT	1.02 ± 0.013
AGGGAGTTAA	0.973 ± 0.054
AGGGAGTTCG	0.977 ± 0.03
AGGGATGTAA	0.992 ± 0.012
AGGGATTCCG	1 ± 0.032
AGGGATTGAT	1.01 ± 0.059
AGGGATTGC	0.973 ± 0.027
AGGGATTTAA	0.988 ± 0.022
AGGGATTTGG	0.987 ± 0.014
AGGGCAACCG	1.04 ± 0.028
AGGGCAAGGA	1.11 ± 0.16
AGGGCAGAGA	1.02 ± 0.046
AGGGCATTCG	0.979 ± 0.026
AGGGCATTGA	1.01 ± 0.022

Sequence	switch fluorescence ratio
AGGGCCCCGG	1.03 ± 0.023
AGGGCCCCTG	0.9941 ± 0.0044
AGGGCGACG	1.05 ± 0.079
AGGGCGACGC	0.912 ± 0.025
AGGGCGGGGT	1.02 ± 0.033
AGGGCGTTGT	0.969 ± 0.035
AGGGCTACAG	1.013 ± 0.0054
AGGGCTGTTC	1.063 ± 0.0045
AGGGCTTTTG	1 ± 0.063
AGGGGAAAAT	0.996 ± 0.028
AGGGGAAACA	1.01 ± 0.031
AGGGGAAAGA	1.02 ± 0.04
AGGGGAAGAA	1 ± 0.019
AGGGGAATTG	0.955 ± 0.021
AGGGGACGGG	1.05 ± 0.037
AGGGGAGAGT	1 ± 0.014
AGGGGAGCGT	1.015 ± 0.0064
AGGGGAGGCT	0.997 ± 0.045
AGGGGAGGGT	1 ± 0.015
AGGGGATAAG	0.992 ± 0.029
AGGGGATCAT	0.981 ± 0.029
AGGGGATTAT	0.998 ± 0.038
AGGGGCACAA	1.01 ± 0.024
AGGGGCAGGG	0.932 ± 0.081
AGGGGCAGTA	0.993 ± 0.032
